# Test: yeast display, Sf9 membrane polyspecificity reagent, FACS + sequencing; frameworks hold sequencing errors
# Procedure, shortened: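 Galactose-induced (36–48 hours) yeast carrying a synthetic nanobody display library were exposed to 10% biotinylated, detergent-solubilized Sf9 membrane reagent at 4 °C for 1 hour. FACS followed streptavidin microbead enrichment, using low and high (top ~1%) gates for expression (anti-HA) and reagent binding (streptavidin). Colony PCR, MiSeq 2 × 250 sequencing and CDR-length filtering followed. Labels for polyreactivity reflect the gate of origin.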
row,Sequence,polyreactivity (PSR sort gate)
1,QVQLVESGGGLVQAGGSLRLSCAASGFIFYEYAMGWYRQAPGKERELVARITRSDGSTYYADSVKGRFTISRDNAKNTVYFQMNSLKPEDTAVYYCNVRRAYYRRGPYYSTYYYWGQGTQVTVSS,high polyreactivity
2,QVQLVESGGGLVQAGGSLRLSCAASGFIFYGNAMGWYRPAPGKERELVAAIRWNGGRTYYADSVKGRFTISRDNAKNTVYLQMNSLKAEDTAVYYCAARISQLKYGYWGQGTQVTVSS,high polyreactivity
3,QVQLVESGGGLVQAGGSLRLSCAASGFIFYGNAMGWYRQAPGKVRELVAGISRSGGSTYYADSVKGRFTISRDNAKNTVSLQMNSLKPEDSAVYYCAASYWHRRYDYWGQGTQVTVSS,high polyreactivity
4,QVQLVESGGGLVQAGGSLRLSCAASGFIFYGYAMGWSRQAPGKERELVAAIRYSGTSTYADSVKGRFTISRDNAKNTVYLQMNSLKPEDTAVFYCAKKYLYYGVPSYKYWGQGTQVTVSS,high polyreactivity
5,QVQLVESGGGLVQAGGSLRLSCAASGFIFYGYAMGWYRQAPGKERELVAGISTGGSTNYADSVKGRITISRDNAKNTVYLQMNSLKPEDTAVYYCAVVDVEEHVGHWGQGTQVTVSS,low polyreactivity
6,QVQLVESGGGLVQAGGSLRLSCAASGFIFYGYAMGWYSQAPGKERELVAGISTGGSTNYADSVKGRFTISRDNAKNTVYLQMNSLKPEDTAVYYCAKRAYFYYGRYDYWGQGTQVTVSS,low polyreactivity
7,QVQLVESGGGLVQAGGSLRLSCAASGFIFYHYAIGWYRQEPGKERELVAAISGRGGSTYYADSVKGRFTISRDNAKNSVYLQMNSLKPEDTAVYYCSTDYSRTFDYWGQGTQVTVSS,high polyreactivity
8,QVQLVESGGGLVQAGGSLRLSCAASGFIFYINAMGWYRQAPGKERELVAAISTSGGSTYYADSVKGRFTISRDNAKNTVYLQMNSLKPEDSAVYYCAAEGSYWYYSYDYWGQGTQVTVSS,high polyreactivity
9,QVQLVESGGGLVQAGGSLRLSCAASGFIFYKNAMGWYRQAPGKERELVAAISRRGSSTYYADSVKGRFTISRDNAKNTVYLQMNSLKPEDTAVYYCAADSHIDHGKWAYDYWGQGTQVTVSS,high polyreactivity
10,QVQLVESGGGLVQAGGSLRLSCAASGFIFYKNAMGWYRQAPGKERELVAISSSGGSTYYADSVKGRFTISRDNAKNSVYLQMNSLKPEDTAVYYCADRSRRYRGGYWGQGTQVTVSS,high polyreactivity
11,QVQLVESGGGLVQAGGSLRLSCAASGFIFYKYAMGWYRQAPGKEREFVAAITWSGGNTYYADSVKGRFTISRDNAKNTVYLQMNSLKPEDTAVYYCAARDSKWGQGTQVTVSS,low polyreactivity
12,QVQLVESGGGLVQAGGSLRLSCAASGFIFYKYAMGWYRQAPGKERELVARISISGGRTYYADSVKGRFTISRDNAKNTVYLQMNSLKPEDTAVYYCATSPWWYGYAAYGMDYWGQGTQVTVSS,low polyreactivity
13,QVQLVESGGGLVQAGGSLRLSCAASGFIFYLNAMGWSRKAPGKERELVAAISSSGGRTYYADSVKGRFTISRDNAKNTVYFQMNSLKAEDTAVYYCNAVTLYRSRTDGYWGQGTQVTVSS,high polyreactivity
14,QVQLVESGGGLVQAGGSLRLSCAASGFIFYLYTMGWYRQAPGKERELVAAITKSGTRTYYADSVKGRFTISRDNAKNTVYLQMNSLKPEDTAVYYCAAEWGSSYRWGMDYWGQGTQVTVSS,high polyreactivity
15,QVQLVESGGGLVQAGGSLRLSCAASGFIFYLYTMGWYRQAPGKERELVAAITRSGGTYYADSVKGRFTISRDNAKNTVYLQMNSLKPEDTAVYYCNADDYEGYYYWGQGTQVTVSS,low polyreactivity
16,QVQLVESGGGLVQAGGSLRLSCAASGFIFYPYAMGWYRQAPGKERELVAVITSGGRTYYADSVKGRFTISRDNAKNTVYLQMNSLKPEDTAVYYCAARYGRIHWKANWPEYGYWGQGTQVTVSS,low polyreactivity
17,QVQLVESGGGLVQAGGSLRLSCAASGFIFYPYAMGWYRQAPGKERELVAVITSGGRTYYADSVKGRFTISRDNAKNTVYLQMYSLKPEDTAVYYCNADTFQWWDIADVYVIVKYGYWGQGTQVTVSS,low polyreactivity
18,QVQLVESGGGLVQAGGSLRLSCAASGFIFYPYAMGWYRQAPGKVRELVAVITSGGRTYYADSVKGRFTISRDNAKNTVYLQMNSLKAEDTAVYYCAARYGRIHWKANWPEYGYWGQGTQVTVSS,low polyreactivity
19,QVQLVESGGGLVQAGGSLRLSCAASGFIFYQYAKGWYRQAPGKERELVATISFRGGRTYYADSVKGRFTITRDTAKNTVYLQMNSLKPDETAVYYCNAKRVSSRFYKWDYYWGQGTQVTVSS,high polyreactivity
20,QVQLVESGGGLVQAGGSLRLSCAASGFIFYRNTMGWYRQAPGKEREFFAAITRSGGITRYADSVKGRFTISRDNAKNTVYLQMNSLKPEDTAVYYCAARRWIADPGRIMDYWGQGTQVTVSS,high polyreactivity
21,QVQLVESGGGLVQAGGSLRLSCAASGFIFYRYAIGWYRQEPGKERELVAAITRSGRSTYYADSVKGRFTISRDNAKNTVYLQMNSLKAEDTAVYYCAVFGSYWWRGLSEDYWGQGTQVTVSS,high polyreactivity
22,QVQLVESGGGLVQAGGSLRLSCAASGFIFYRYAMGWYRQAPGKERELVAAISWSGGTTYYADSVKGRFTISRDNAKNTVYLQMNSLKPEDTAVYYCAARSVPSPERGFYYWGQGTQVTVSS,high polyreactivity
23,QVQLVESGGGLVQAGGSLRLSCAASGFIFYRYAMGWYRQAPGKERELVAAISYSGGSTYYADSVKGRFTISRDNAKNTVYLQMISLKPEDTAVYYCAAGSKYRYDYWGQGTQVTVSS,high polyreactivity
24,QVQLVESGGGLVQAGGSLRLSCAASGFIFYRYAMGWYRQAPGKERELVAAITGGGSTYYADSVKGRFTISRDNAKNTVYLQMNSLKPEDTAVYYCNAVTYGWTAYDKGKRYDYWGQGTQVTVSS,high polyreactivity
25,QVQLVESGGGLVQAGGSLRLSCAASGFIFYRYAMGWYRQAPGKERELVAAITSDGSTYYADSVKGRFTISRDNAKNTVYLQMNSLKPEDTAVYYCNAERWGNSVGNYWGQGTQVTVSS,high polyreactivity
26,QVQLVESGGGLVQAGGSLRLSCAASGFIFYRYARGWYRQAPGKERELVAVISRGGNTYYADSVKGRFTISRDNAKNTVYLQMNSLKPEDTAVYYCNKRLRDSYRLYYYWGQGTQVTVSS,high polyreactivity
27,QVQLVESGGGLVQAGGSLRLSCAASGFIFYRYTLGWSRQAPGKERELVAAITSGGSTYYADSVKGRFTISRDNAKNTVYLQMNSLKPEDSAVYYCAAAYQRWFNRRDYWGQGTQVTVSS,high polyreactivity
28,QVQLVESGGGLVQAGGSLRLSCAASGFIFYSNAMGWYRPAPGKERELVAAISWGGGRTYYADSVKGRFTISRDNAKNTVYLQMNSLKPEDTAVYYCAAAGYHSGKGGGYWGQGTQVTVSS,high polyreactivity
29,QVQLVESGGGLVQAGGSLRLSCAASGFIFYSYAMGWSRQAPGKERELVAAISSTGTSTYYADSVKGRFTISRDNAKNTVYLQMNSLKPEDTAVYYCNAGYAFDPDETYDYWGQGTQVTVSS,low polyreactivity
30,QVQLVESGGGLVQAGGSLRLSCAASGFIFYSYAMGWYRQAPGKEREFVAAISRAGSTNYADSVKGRFTISRDNAKNTVYLQMNSLIPEDTAVYYCNKGYHSWSRLSQFGWSYDYWGQGTQVTVSS,high polyreactivity

# Reference: the nanobody polyreactivity screen of Harvey et al. (2022)
